In patent US20210332115A1 (Sanofi, published 2021):

T1: C2 (Comptech A112) (UniProt P06681 21-752)
T1 sequence (looked up): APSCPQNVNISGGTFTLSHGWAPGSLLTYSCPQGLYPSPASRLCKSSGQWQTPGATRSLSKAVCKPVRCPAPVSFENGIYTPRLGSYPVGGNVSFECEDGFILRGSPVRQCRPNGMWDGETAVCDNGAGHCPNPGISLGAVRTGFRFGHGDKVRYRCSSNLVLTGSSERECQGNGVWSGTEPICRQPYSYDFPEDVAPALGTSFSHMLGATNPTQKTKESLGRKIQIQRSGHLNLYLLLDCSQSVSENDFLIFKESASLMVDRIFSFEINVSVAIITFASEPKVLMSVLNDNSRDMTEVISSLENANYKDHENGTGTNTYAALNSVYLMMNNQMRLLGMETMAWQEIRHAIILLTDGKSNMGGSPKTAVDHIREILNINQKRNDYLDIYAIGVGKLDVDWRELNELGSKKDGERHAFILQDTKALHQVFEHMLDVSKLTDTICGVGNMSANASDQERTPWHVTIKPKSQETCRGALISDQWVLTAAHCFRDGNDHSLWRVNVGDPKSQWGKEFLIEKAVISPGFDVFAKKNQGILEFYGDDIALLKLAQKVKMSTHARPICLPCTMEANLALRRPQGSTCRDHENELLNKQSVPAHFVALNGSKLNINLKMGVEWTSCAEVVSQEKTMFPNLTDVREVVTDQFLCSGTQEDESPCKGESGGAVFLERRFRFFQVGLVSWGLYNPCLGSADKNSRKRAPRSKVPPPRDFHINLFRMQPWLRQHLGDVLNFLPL


What was measured:
[1] = target: T2, Homo sapiens factor Bb protein (human, UniProt P00751 260-764); assay: SPR single cycle kinetics; ratio against VH0/Vκ0
T2 construct: Bought from CompTech (A155); also called complement factor Bb; human factor Bb
Description: (§1) In order to assess the binding of all humanized variants, single cycle kinetic analysis was performed on supernatants from transfected cell cultures. […] All single cycle kinetic experiments were run at 25° C. with HBS-P+running buffer (pH 7. 4) (GE Healthcare, Little Chalfont, UK).
(§2) Antibodies were diluted in running buffer to a final concentration of 1 μg/ml, based on concentrations assessed by ELISA titer. At the start of each cycle, antibodies were loaded onto Fc2, Fc3 and Fc4 of the Protein A chip (GE Healthcare, Little Chalfont, UK). IgGs were captured at a flow rate of 10 μl/min to give an immobilization level (RL) of ˜63 RU, the theoretical value to obtain an Rmax of ˜50 RU. The surface was then allowed to stabilize. Single cycle kinetic data was obtained with factor Bb (CompTech, Tyler, USA) as the analyte at a flow rate of 30 μl/min to minimize any potential mass transport limitations. Multiple repeats with the reference chimeric antibody were performed to check the stability of the surface and analyte over the kinetic cycles. The signal from the reference channel Fc1 (no antibody) was subtracted from that of Fc2, Fc3 and Fc4 to correct for differences in non-specific binding to a reference surface. A four point, two-fold dilution range from 0. 78 nM to 6. 25 nM factor Bb without regeneration between each concentration was used. The association phase for the four injections of increasing concentrations of factor Bb was monitored for 200 seconds each time and a single dissociation phase was measured for 200 seconds following the last injection of factor Bb. Regeneration of the Protein A surface was conducted using two injections of 10 mM glycine-HCL pH 1. 5.
The sensorgrams and fitted data for the single cycle kinetics are shown in FIGS. 1A-1D and the kinetic parameters measured for the interaction of factor Bb with each antibody are shown in Table 7. The relative KD was calculated by dividing the KD of the VH0/Vκ0 reference antibody by that of the humanized variant assayed in the same experiment.

[2] = target: T2, Homo sapiens factor Bb protein; assay: SPR single cycle kinetics, IgG on Protein A chip, factor Bb analyte
Description: as §1, §2
Single cycle kinetics using cell culture supernatants were performed as described above.

[3] = target: T1, C2 (Comptech A112); assay: ELISA, target coated at 2.5 µg/mL, biotinylated antibody titrated, streptavidin-HRP, OD450 background subtracted
Description: Briefly, complement and plasma proteins were coated onto ELISA plates at 2. 5 μg/mL in PBS overnight at 4° C. Plates were then blocked with Casein for 1 hour at room temperature and washed four times with 1× DPBS/0.05% Tween-20 followed by a single wash with 1× DPBS. Serial dilutions starting at 50 μg/ml of biotinylated chimeric parent or VH6/VK7-IgG4v2 were added to the plate in PBS/0.1%casein/0.1%Tween-20 and incubated for 2 hours at room temperature. Plates were washed as described and a 1:10,000 dilution of streptavidin-HRP (Southern Biotech 7100-05) in PBS/0.1% casein/0.1% Tween-20 was added to the plate and incubated for 30 minutes at room temperature. Plates were again washed and Ultra TMP ELISA (Thermo 34028) was added to the plate for 1 minute, followed by stop solution). OD 450 nm was read in a plate reader and background at 620 nm was subtracted. Both the chimeric parent (FIG. 8A) and the humanized variant (FIG. 8B) show complete specificity for factor Bb.

[4] = target: T2, Homo sapiens factor Bb protein; assay: BLI, multi-cycle kinetics, antibody loaded on anti-hIgG Fc sensors, human factor Bb in solution (100 nM to 0.14 nM), 1:1 fit
Description: Multicycle kinetic analysis was performed on CHO and HEK-produced VH6/VK7-IgG4v2 antibodies using biolayer interferometry. Antibodies were diluted to 10 μg/mL in PBS+ 0.02%. Tween20, 0.1% BSA, 0.05% sodium azide and loaded onto anti-hIgG Fc sensors (pre-equilibrated in the same buffer) for 90 seconds followed by a 60-minute baseline in buffer. Binding of a concentration series of human factor Bb (Complement Technologies, #A155), ranging from 100 nM to 0.14 nM in 2-fold dilutions, was measured in a 300 second association in the same buffer, followed by a 300 second dissociation step.

T2 sequence (P00751 260-764 limits assumed): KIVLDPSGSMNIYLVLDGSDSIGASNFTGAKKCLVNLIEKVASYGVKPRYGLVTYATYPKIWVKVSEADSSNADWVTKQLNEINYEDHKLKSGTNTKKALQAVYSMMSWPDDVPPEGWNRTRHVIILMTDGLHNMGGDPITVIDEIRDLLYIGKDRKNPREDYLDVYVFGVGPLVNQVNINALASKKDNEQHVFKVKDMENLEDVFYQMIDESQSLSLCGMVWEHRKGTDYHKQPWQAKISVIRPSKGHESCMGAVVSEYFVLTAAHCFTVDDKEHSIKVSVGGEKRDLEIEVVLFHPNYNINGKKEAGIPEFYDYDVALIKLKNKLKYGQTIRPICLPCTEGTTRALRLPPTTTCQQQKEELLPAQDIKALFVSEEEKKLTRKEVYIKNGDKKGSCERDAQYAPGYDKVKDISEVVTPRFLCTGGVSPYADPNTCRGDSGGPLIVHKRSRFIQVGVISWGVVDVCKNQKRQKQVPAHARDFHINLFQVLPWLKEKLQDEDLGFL

Row | Binder | Relative KD [1] | Kd [2] [nM] | koff [2] [s⁻¹] | kon [2] [M⁻¹ s⁻¹] | binding result [3] | Kd [4] [nM]
1 | VH0/Vκ0 (Chimeric) (antibody, V domains shown, also called chimeric antibody) VH: EVQLVESGGALVKPGGSLKLSCAASGFTFSNYAMSWVRQTPEKRLEWVATISNRGSYTYYPDSVKGRFTISRDNAKNTLYLQMSSLRSEDTALYYCARERPMDYWGQGTSVTVSS VL: DIVMTQSHKFMSTSVGDRVSITCKASQDVGTAVAWYQQKPGQSPKLLIYWASTRHTGVPDRFTGSGSGTDFTLTITNVQSEDLAVYFCHQHSSNPLTFGAGTKLELK | 1 | 1.77 | 0.000949 | 535000 |  | 
2 | VH6/Vκ7-IgG4v2 (antibody, also called VH6/VK7-IgG4v2; VH6/VK7-IgG4v2_HEK) heavy: not shown light: DIQMTQSPSTLSASVGDRVTITCKASQDVGTAVAWYQQKPGKAPKLLIYWASTRHTGVPDRFSGSGSGTDFTLTISSLQAEDFAVYFCHQHSSNPLTFGQGTKLEIKRTVAAPSVFIFPPSDEQLKSGTASVVCLLNNFYPREAKVQWKVDNALQSGNSQESVTEQDSKDSTYSLSSTLTLSKADYEKHKVYACEVTHQGLSSPVTKSFNRGEC |  |  |  |  | no binding | 2.9
